Consider 57 variants from the RNAGym collection of RNA variant scans (doi:10.7554/elife.80360).

To fix the notation:
B1: Hammerhead Ribozyme (parent)
chain: ACCGGAUGUGCUUUCCGGUCUGAUGAGUCCGUGAGGACGAAACAG

The variants in this data set derive from B1. As to the kind of experiment: self-cleavage, relative activity (ratio to wild type); higher = more cleavage; co-transcriptional.
Regarding ACCGGAUGUGCUUUCCAGUCAGAUGAGUCCGUGAGGACGAAACAG, the self-cleavage turned out to be 0.351.
The result for ACCGGAUGUGCUUUCCAGUCGGAUGAGUCCGUGAGGACGAAACAG reads 0.39; that for ACCGGAUGUGCUUUCCCAUCUGAUGAGUCCGUGAGGACGAAACAG, 0.361.
The result for ACCGGAUGUGCUUUCCCCUCUGAUGAGUCCGUGAGGACGAAACAG reads 0.347; that for ACCGGAUGUGCUUUCCCUUCUGAUGAGUCCGUGAGGACGAAACAG, 0.455.
The result for ACCGGAUGUGCUUUCCCGUCUGAUGAGUCCGUGAGGACGACACAG reads 0.272.
ACCGGAUGUGCUUUCCCGUCUGAUGAGUCCGUGAGGACGAGACAG: the self-cleavage stood at 0.388.
For ACCGGAUGUGCUUUCCCGUCUGAUGAGUCCGUGAGGACGAUACAG the value was 0.318; for ACCGGAUGUGCUUUCCAGUCUGAUGAGUCCCUGAGGACGAAACAG, 0.652.
For ACCGGAUGUGCUUUCCAGUCUGAUGAGUCCAUGAGGACGAAACAG the value was 0.875; for ACCGGAUGUGCUUUCCAGUCUGAUGAGUCCUUGAGGACGAAACAG, 0.788.
For ACCGGAUGUGCUUUCCCGUCUGAUGAGUCCGUGCGGACGAAACAG the value was 0.438; for ACCGGAUGUGCUUUCCCGUCUGAUGAGUCCGUGUGGACGAAACAG, 0.501; for ACCGGAUGUGCUUUCCCGUCUGAUGAGUCCGUGGGGACGAAACAG, 0.436.
ACCGGAUGUGCUUUCCCGUCUGAUGUGUCCGUGAGGACGAAACAG: the self-cleavage stood at 0.326.
The result for ACCGGAUGUGCUUUCCCGUCUGAUGCGUCCGUGAGGACGAAACAG reads 0.355; that for ACCGGAUGUGCUUUCCCGUCUGAUGGGUCCGUGAGGACGAAACAG, 0.353.
Turning to ACCGGAUGUGCUUUCCCGUCUGAUGAGUCCGUGAGGACGAAACCG, the self-cleavage stood at 0.418.
The result for ACCGGAUGUGCUUUCCCGUCUGAUGAGUCCGUGAGGACGAAACGG reads 0.664.
For ACCGGAUGUGCUUUCCCGUCUGAUGAGUCCGUGAGGACGAAACUG the value was 0.414.
For ACCGGAUGUGCUUUCCAGUCUGAUGAGUCCGUGACGACGAAACAG, the self-cleavage stood at 0.548.
For ACCGGAUGUGCUUUCCAGUCUGAUGAGUCCGUGAUGACGAAACAG the value was 0.455; for ACCGGAUGUGCUUUCCAGUCUGAUGAGUCCGUGAAGACGAAACAG, 0.623; for ACCGGAUGUGCUUUCCCGUCUGUUGAGUCCGUGAGGACGAAACAG, 0.326.
For ACCGGAUGUGCUUUCCCGUCUGCUGAGUCCGUGAGGACGAAACAG the value was 0.327; for ACCGGAUGUGCUUUCCCGUCUGGUGAGUCCGUGAGGACGAAACAG, 0.417; for ACCGGAUGUGCUUUCCAGUCUGAUGAAUCCGUGAGGACGAAACAG, 0.51.
For ACCGGAUGUGCUUUCCAGUCUGAUGACUCCGUGAGGACGAAACAG the value was 0.399.
Regarding ACCGGAUGUGCUUUCCAGUCUGAUGAUUCCGUGAGGACGAAACAG, the self-cleavage was 0.495.
As for ACCGGAUGUGCUUUCCAGUCUGAUGAGUCCGUGAGAACGAAACAG, the self-cleavage stood at 0.442.
The result for ACCGGAUGUGCUUUCCAGUCUGAUGAGUCCGUGAGCACGAAACAG reads 0.263.
For ACCGGAUGUGCUUUCCAGUCUGAUGAGUCCGUGAGUACGAAACAG the value was 0.418; for ACCGGAUGUGCUUUCCAGUAUGAUGAGUCCGUGAGGACGAAACAG, 0.327.
The result for ACCGGAUGUGCUUUCCAGUGUGAUGAGUCCGUGAGGACGAAACAG reads 0.367; that for ACCGGAUGUGCUUUCCAGUUUGAUGAGUCCGUGAGGACGAAACAG, 0.442.
For ACCGGAUGUGCUUUCCAGUCUGAUGAGUCCGUGAGGACGUAACAG, the self-cleavage stood at 0.354.
For ACCGGAUGUGCUUUCCAGUCUGAUGAGUCUGUGAGGACGAAACAG the value was 0.622.
The result for ACCGGAUGUGCUUUCCAGUCUGAUGAGUCAGUGAGGACGAAACAG reads 0.561; that for ACCGGAUGUGCUUUCCAGUCUGAUGAGUCGGUGAGGACGAAACAG, 0.476.
ACCGGAUGUGCUUUCCAGACUGAUGAGUCCGUGAGGACGAAACAG: the self-cleavage is 0.386.
For ACCGGAUGUGCUUUCCAGCCUGAUGAGUCCGUGAGGACGAAACAG the value was 0.23; for ACCGGAUGUGCUUUCCAGGCUGAUGAGUCCGUGAGGACGAAACAG, 0.332; for ACCGGAUGUGCUUUCCAGUCUGAUGAGCCCGUGAGGACGAAACAG, 0.331.
For ACCGGAUGUGCUUUCCAGUCUGAUGAGACCGUGAGGACGAAACAG the value was 0.42.
For ACCGGAUGUGCUUUCCAGUCUGAUGAGGCCGUGAGGACGAAACAG the value was 0.567; for ACCGGAUGUGCUUUCCAGUCUGAUGAGUCCGUGAGGACGAAAUAG, 0.335; for ACCGGAUGUGCUUUCCAGUCUGAUGAGUCCGUGAGGACGAAAGAG, 0.441.
With ACCGGAUGUGCUUUCCAGUCUGAUGAGUCCGUGAGGACGAAAAAG, the self-cleavage was determined as 0.372.
For ACCGGAUGUGCUUUCCAGUCUGAUGAGUCCGGGAGGACGAAACAG the value was 0.613; for ACCGGAUGUGCUUUCCAGUCUGAUGAGUCCGCGAGGACGAAACAG, 0.812.
For ACCGGAUGUGCUUUCCAGUCUGAUGAGUCCGAGAGGACGAAACAG the value was 0.62; for ACCGGAUGUGCUUUCCAGUCUGAUGAGUACGUGAGGACGAAACAG, 0.441.
For ACCGGAUGUGCUUUCCAGUCUGAUGAGUGCGUGAGGACGAAACAG the value was 0.462; for ACCGGAUGUGCUUUCCAGUCUGAUGAGUUCGUGAGGACGAAACAG, 0.68.
As to ACCGGAUGUGCUUUCCAGUCUGAUGAGUCCGUGAGGACGAAACGG, the self-cleavage was 0.742.
For the variant ACCGGAUGUGCUUUCCAGUCUGAUGAGUCCGUGAGGACGAAACCG, the self-cleavage amounted to 0.513.
The result for ACCGGAUGUGCUUUCCAGUCUGAUGAGUCCGUGAGGACGAAACUG reads 0.449.
